Source: patent US5595736
Positions count from the first letter of the chain named.

B1: mt-PA6-D (enzyme)
chain: SYQGNSDCYFGQGSAYRGTHSLTESGASCLPWNGSMILIGKVYTAQNPSAQALGLGKHNYCRNPDGDAKPWCHVLKNRRLTWEYCDVPSCSTCGLRQYSQPQFRIKGGLFADIASHPWQAAIFAKHRRSPGERFLCGGILISSCWILSAAHCFQERFPPHHLTVILGRTYRVVPGEEEQKFEVEKYIVHKEFDDDTYDNDIALLQLKSDSSRCAQESSVVRTVCLPPADLQLPDWTECELSGYGKHEALSPFYSERLKEAHVRLYPSSRCTSQHLLNRTVTDNMLCAGDTRSGGPQANLHDACQGDSGGPLVCLNDGRMTLVGIISWGLGCGQKDVPGVYTKVTNYLDWIRDNMRP
modifications: diglycosylated: alternate glycosylation consensus sequence at the amino acids surrounding position 33 (equivalent to amino acid 205 of t-PA) in Kringle 2, and the glycosylation consensus sequence within the Serine Protease domain
B2: mt-PA9 (enzyme)
chain: SYQDTRATCYEDQGISYRGTWSTAESGAECTNWNSSALAQKPYSGRRPDAIRLGLGNHNYCRNPDGDAKPWCHVLKNRRLTWEYCDVPSCSTCGLRQYSQPQFRIKGGLFADIASHPWQAAIFAKHRRSPGERFLCGGILISSCWILSAAHCFQERFPPHHLTVILGRTYRVVPGEEEQKFEVEKYIVHKEFDDDTYDNDIALLQLKSDSSRCAQESSVVRTVCLPPADLQLPDWTECELSGYGKHEALSPFYSERLKEAHVRLYPSSRCTSQHLLNRTVTDNMLCAGDTRSGGPQANLHDACQGDSGGPLVCLNDGRMTLVGIISWGLGCGQKDVPGVYTKVTNYLDWIRDNMRP
modifications: diglycosylated: obligatory glycosylation site located in the first exon of Kringle 1, and the site in the Serine Protease domain
B3: mt-PA6-E (enzyme)
chain: SYQGNSDCYFGQGSAYRGTHSLTESGASCLPWNSMILIGKVYTAQNGSAQALGLGKHNYCRNPDGDAKPWCHVLKNRRLTWEYCDVPSCSTCGLRQYSQPQFRIKGGLFADIASHPWQAAIFAKHRRSPGERFLCGGILISSCWILSAAHCFQERFPPHHLTVILGRTYRVVPGEEEQKFEVEKYIVHKEFDDDTYDNDIALLQLKSDSSRCAQESSVVRTVCLPPADLQLPDWTECELSGYGKHEALSPFYSERLKEAHVRLYPSSRCTSQHLLNRTVTDNMLCAGDTRSGGPQANLHDACQGDSGGPLVCLNDGRMTLVGIISWGLGCGQKDVPGVYTKVTNYLDWIRDNMRP
modifications: diglycosylated: alternate glycosylation consensus sequence at the amino acids surrounding position 48 (equivalent to amino acid 219 of t-PA) in Kringle 2 (claim 2: monoglycosylated at amino acid residue number 47), and the glycosylation consensus sequence within the Serine Protease domain
B4: Variant mt-PA6 (mt-PA6-V) (enzyme)
chain: B3 chain with Q12N, G47P
modifications: glycosylated at amino acids 276 and 12
B5: Primary mt-PA6 (mt-PA6-P) (enzyme)
chain: B3 chain with Q12N, G47P
modifications: glycosylated at amino acid 276 but not at amino acid 12

biological target: Lysine (Lys)-Plasminogen

| ratio of the rates of Lys- to Glu-plasminogen activation in the presence of fibrin stimulator (Lys/Glu) (Lys/Glu (ratio of rates), single chain) | Binder |
| --- | --- |
| 3.3 | B1 |
| 2 | B2 |
| 2 | B3 |
| 1.4 | B4 |
| 1 | B5 |

biological target: plasminogen

| plasminogenolytic activity (PAU/mg) (PAU/mg (single chain)) | Binder |
| --- | --- |
| 189 | B1 |
| 50 | B2 |
| 59 | B3 |
| 56 | B4 |
| 87 | B5 |
